# Data as given in IntAct's records for PubMed 31515488.
# B1: PHD finger protein 1 (Homo sapiens), O43189 (parent)
# chain: MAQPPRLSRSGASSLWDPASPAPTSGPRPRLWEGQDVLARWTDGLLYLGTIKKVDSAREVCLVQFEDDSQFLVLWKDISPAALPGEELLCCVCRSETVVPGNRLVSCEKCRHAYHQDCHVPRAPAPGEGEGTSWVCRQCVFAIATKRGGALKKGPYARAMLGMKLSLPYGLKGLDWDAGHLSNRQQSYCYCGGPGEWNLKMLQCRSCLQWFHEACTQCLSKPLLYGDRFYEFECCVCRGGPEKVRRLQLRWVDVAHLVLYHLSVCCKKKYFDFDREILPFTSENWDSLLLGELSDTPKGERSSRLLSALNSHKDRFISGREIKKRKCLFGLHARMPPPVEPPTGDGALTSFPSGQGPGGGVSRPLGKRRRPEPEPLRRRQKGKVEELGPPSAVRNQPEPQEQRERAHLQRALQASVSPPSPSPNQSYQGSSGYNFRPTDARCLPSSPIRMFASFHPSASTAGTSGDSGPPDRSPLELHIGFPTDIPKSAPHSMTASSSSVSSPSPGLPRRSAPPSPLCRSLSPGTGGGVRGGVGYLSRGDPVRVLARRVRPDGSVQYLVEWGGGGIF
# B2: Syntenin-2 (Homo sapiens), Q9H190 (parent)
# chain: MSSLYPSLEDLKVDQAIQAQVRASPKMPALPVQATAISPPPVLYPNLAELENYMGLSLSSQEVQESLLQIPEGDSTAVSGPGPGQMVAPVTGYSLGVRRAEIKPGVREIHLCKDERGKTGLRLRKVDQGLFVQLVQANTPASLVGLRFGDQLLQIDGRDCAGWSSHKAHQVVKKASGDKIVVVVRDRPFQRTVTMHKDSMGHVGFVIKKGKIVSLVKGSSAARNGLLTNHYVCEVDGQNVIGLKDKKIMEILATAGNVVTLTIIPSVIYEHMVKKLPPVLLHHTMDHSIPDA
# partner: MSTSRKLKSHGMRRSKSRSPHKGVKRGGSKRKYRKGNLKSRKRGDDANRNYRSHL
# B3: Cytochrome P450 4F12 (Homo sapiens), Q9HCS2 (parent)
# chain: MSLLSLPWLGLRPVATSPWLLLLLVVGSWLLARILAWTYAFYNNCRRLQCFPQPPKRNWFWGHLGLITPTEEGLKNSTQMSATYSQGFTVWLGPIIPFIVLCHPDTIRSITNASAAIAPKDNLFIRFLKPWLGEGILLSGGDKWSRHRRMLTPAFHFNILKSYITIFNKSANIMLDKWQHLASEGSSRLDMFEHISLMTLDSLQKCIFSFDSHCQERPSEYIATILELSALVEKRSQHILQHMDFLYYLSHDGRRFHRACRLVHDFTDAVIRERRRTLPTQGIDDFFKDKAKSKTLDFIDVLLLSKDEDGKALSDEDIRAEADTFMFGGHDTTASGLSWVLYNLARHPEYQERCRQEVQELLKDRDPKEIEWDDLAQLPFLTMCVKESLRLHPPAPFISRCCTQDIVLPDGRVIPKGITCLIDIIGVHHNPTVWPDPEVYDPFRFDPENSKGRSPLAFIPFSAGPRNCIGQAFAMAEMKVVLALMLLHFRFLPDHTEPRRKLELIMRAEGGLWLRVEPLNVSLQ
# partner: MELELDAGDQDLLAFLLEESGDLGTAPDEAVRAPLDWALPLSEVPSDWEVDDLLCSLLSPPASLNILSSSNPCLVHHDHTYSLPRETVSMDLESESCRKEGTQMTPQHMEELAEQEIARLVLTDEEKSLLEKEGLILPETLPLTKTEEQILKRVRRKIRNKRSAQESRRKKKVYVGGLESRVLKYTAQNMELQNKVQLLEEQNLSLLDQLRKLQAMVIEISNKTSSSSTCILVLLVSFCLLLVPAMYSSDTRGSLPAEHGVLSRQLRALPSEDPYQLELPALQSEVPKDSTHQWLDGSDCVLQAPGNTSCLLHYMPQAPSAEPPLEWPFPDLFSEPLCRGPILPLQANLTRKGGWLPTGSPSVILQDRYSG
# B4: Tuftelin-interacting protein 11 (Homo sapiens), Q9UBB9 (parent)
# chain: MSLSHLYRDGEGRIDDDDDERENFEITDWDLQNEFNPNRQRHWQTKEEATYGVWAERDSDDERPSFGGKRARDYSAPVNFISAGLKKGAAEEAELEDSDDEEKPVKQDDFPKDFGPRKLKTGGNFKPSQKGFAGGTKSFMDFGSWERHTKGIGQKLLQKMGYVPGRGLGKNAQGIINPIEAKQRKGKGAVGAYGSERTTQSMQDFPVVDSEEEAEEEFQKELSQWRKDPSGSKKKPKYSYKTVEELKAKGRISKKLTAPQKELSQVKVIDMTGREQKVYYSYSQISHKHNVPDDGLPLQSQQLPQSGKEAKAPGFALPELEHNLQLLIDLTEQEIIQNDRQLQYERDMVVNLFHELEKMTEVLDHEERVISNLSKVLEMVEECERRMQPDCSNPLTLDECARIFETLQDKYYEEYRMSDRVDLAVAIVYPLMKEYFKEWDPLKDCTYGTEIISKWKSLLENDQLLSHGGQDLSADAFHRLIWEVWMPFVRNIVTQWQPRNCDPMVDFLDSWVHIIPVWILDNILDQLIFPKLQKEVENWNPLTDTVPIHSWIHPWLPLMQARLEPLYSPIRSKLSSALQKWHPSDSSAKLILQPWKDVFTPGSWEAFMVKNIVPKLGMCLGELVINPHQQHMDAFYWVIDWEGMISVSSLVGLLEKHFFPKWLQVLCSWLSNSPNYEEITKWYLGWKSMFSDQVLAHPSVKDKFNEALDIMNRAVSSNVGAYMQPGARENIAYLTHTERRKDFQYEAMQERREAENMAQRGIGVAASSVPMNFKDLIETKAEEHNIVFMPVIGKRHEGKQLYTFGRIVIYIDRGVVFVQGEKTWVPTSLQSLIDMAK
# Variants of: B1
# Settings: with dhb14_human HSD17B14, Q9BPX1
# Sequence of dhb14_human HSD17B14, Q9BPX1 (Q9BPX1 whole entry): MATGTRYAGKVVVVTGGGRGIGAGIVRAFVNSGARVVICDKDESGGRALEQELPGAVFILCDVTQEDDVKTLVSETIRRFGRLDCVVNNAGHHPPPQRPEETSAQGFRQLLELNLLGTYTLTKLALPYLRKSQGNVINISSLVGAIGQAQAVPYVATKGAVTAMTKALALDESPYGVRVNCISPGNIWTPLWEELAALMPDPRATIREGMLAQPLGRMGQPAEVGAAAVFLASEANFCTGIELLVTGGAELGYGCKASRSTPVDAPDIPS
row,effect of a mutation on the interaction,Variant
1,with no effect,S14L

# Variants of: B1
# Settings: with tri23_human TRIM23, P36406
# Sequence of tri23_human TRIM23, P36406 (P36406 whole entry): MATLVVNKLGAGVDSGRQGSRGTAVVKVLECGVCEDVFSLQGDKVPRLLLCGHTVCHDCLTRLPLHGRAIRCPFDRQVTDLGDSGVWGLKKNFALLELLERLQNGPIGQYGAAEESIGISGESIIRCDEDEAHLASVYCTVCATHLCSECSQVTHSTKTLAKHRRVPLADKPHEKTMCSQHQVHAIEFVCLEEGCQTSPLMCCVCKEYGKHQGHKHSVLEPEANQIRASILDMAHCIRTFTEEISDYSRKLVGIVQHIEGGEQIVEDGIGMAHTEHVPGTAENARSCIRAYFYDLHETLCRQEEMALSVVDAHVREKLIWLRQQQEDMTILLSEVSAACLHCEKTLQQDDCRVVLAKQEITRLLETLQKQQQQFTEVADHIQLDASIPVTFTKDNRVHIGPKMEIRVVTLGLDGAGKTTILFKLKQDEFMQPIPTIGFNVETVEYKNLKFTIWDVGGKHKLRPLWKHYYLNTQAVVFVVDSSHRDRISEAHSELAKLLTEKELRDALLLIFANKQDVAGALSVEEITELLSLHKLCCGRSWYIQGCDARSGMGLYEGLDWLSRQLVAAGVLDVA
row,effect of a mutation on the interaction,Variant
1,with no effect,S14L

# Variants of: B1
# Settings: with pdli7_human PDLIM7, Q9NR12
# Sequence of pdli7_human PDLIM7, Q9NR12 (Q9NR12 whole entry): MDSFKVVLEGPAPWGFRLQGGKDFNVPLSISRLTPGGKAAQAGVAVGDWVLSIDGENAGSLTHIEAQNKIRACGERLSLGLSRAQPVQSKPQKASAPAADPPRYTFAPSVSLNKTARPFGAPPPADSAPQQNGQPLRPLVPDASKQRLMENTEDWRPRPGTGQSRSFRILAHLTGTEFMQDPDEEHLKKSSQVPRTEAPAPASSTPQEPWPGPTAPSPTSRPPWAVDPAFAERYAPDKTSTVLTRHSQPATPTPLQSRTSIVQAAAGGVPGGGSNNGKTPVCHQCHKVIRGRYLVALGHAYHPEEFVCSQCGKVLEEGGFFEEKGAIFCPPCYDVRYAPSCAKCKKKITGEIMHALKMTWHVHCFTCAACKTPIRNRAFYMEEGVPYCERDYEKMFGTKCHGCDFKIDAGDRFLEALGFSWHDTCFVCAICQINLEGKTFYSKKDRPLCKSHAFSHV
row,effect of a mutation on the interaction,Variant
1,with no effect,S14L

# Variants of: B2
# Settings: with stp1_human TNP1, P09430
row,effect of a mutation on the interaction,Variant
1,disrupting interaction strength,G242R
2,disrupting interaction strength,G225R
3,disrupting interaction strength,V182M

# Variants of: B3
# Settings: with creb3_human CREB3, O43889
row,effect of a mutation on the interaction,Variant
1,with no effect,R272Q
2,disrupting interaction strength,R254W

# Variants of: B4
# Settings: with zmat2_human ZMAT2, Q96NC0
# Sequence of zmat2_human ZMAT2, Q96NC0 (Q96NC0 whole entry): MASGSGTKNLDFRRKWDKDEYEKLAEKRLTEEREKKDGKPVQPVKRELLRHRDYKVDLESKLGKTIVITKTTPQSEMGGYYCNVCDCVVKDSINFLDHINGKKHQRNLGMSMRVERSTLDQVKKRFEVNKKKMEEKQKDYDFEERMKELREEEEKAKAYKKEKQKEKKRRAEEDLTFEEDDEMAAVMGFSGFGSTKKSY
row,effect of a mutation on the interaction,Variant
1,with no effect,S688L

# Variants of: B4
# Settings: with cox5b_human COX5B
row,effect of a mutation on the interaction,Variant
1,with no effect,S688L

# Variants of: B4
# Settings: with txlna_human TXLNA
row,effect of a mutation on the interaction,Variant
1,with no effect,S688L

# Variants of: B4
# Settings: with hook1_human HOOK1, Q9UJC3
# Sequence of hook1_human HOOK1, Q9UJC3 (Q9UJC3 whole entry): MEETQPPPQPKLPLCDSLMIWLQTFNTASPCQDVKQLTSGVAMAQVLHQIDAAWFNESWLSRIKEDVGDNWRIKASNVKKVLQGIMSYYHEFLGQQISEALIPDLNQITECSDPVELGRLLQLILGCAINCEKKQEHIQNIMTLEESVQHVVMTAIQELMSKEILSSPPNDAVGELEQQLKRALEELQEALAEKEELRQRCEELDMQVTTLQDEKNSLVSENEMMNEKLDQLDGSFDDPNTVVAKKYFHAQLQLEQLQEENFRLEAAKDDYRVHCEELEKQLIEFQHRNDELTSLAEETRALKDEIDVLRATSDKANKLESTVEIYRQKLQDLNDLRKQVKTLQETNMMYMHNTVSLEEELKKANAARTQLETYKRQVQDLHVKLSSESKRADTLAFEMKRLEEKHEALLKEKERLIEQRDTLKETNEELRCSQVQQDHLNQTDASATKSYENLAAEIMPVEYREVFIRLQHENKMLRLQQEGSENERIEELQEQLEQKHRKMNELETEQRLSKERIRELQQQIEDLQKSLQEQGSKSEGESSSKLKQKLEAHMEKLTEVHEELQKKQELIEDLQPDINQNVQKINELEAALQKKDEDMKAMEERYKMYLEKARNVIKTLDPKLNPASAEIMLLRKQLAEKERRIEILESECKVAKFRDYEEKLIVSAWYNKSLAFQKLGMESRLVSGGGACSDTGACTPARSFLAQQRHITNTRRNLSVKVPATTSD
row,effect of a mutation on the interaction,Variant
1,with no effect,S688L

# Variants of: B4
# Settings: with tnnt1_human TNNT1, P13805
# Sequence of tnnt1_human TNNT1, P13805 (P13805 whole entry): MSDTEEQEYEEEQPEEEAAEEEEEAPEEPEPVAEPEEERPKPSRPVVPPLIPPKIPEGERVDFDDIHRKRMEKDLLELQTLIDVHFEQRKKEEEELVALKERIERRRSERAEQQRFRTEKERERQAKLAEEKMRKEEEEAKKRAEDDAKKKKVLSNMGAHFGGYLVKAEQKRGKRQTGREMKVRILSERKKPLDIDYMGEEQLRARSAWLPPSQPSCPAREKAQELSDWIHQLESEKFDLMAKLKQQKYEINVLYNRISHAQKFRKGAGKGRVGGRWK
row,effect of a mutation on the interaction,Variant
1,with no effect,S688L

# Variants of: B4
# Settings: with coq8a_human COQ8A
row,effect of a mutation on the interaction,Variant
1,with no effect,S688L

# Variants of: B4
# Settings: with smce1_human SMARCE1, Q969G3
# Sequence of smce1_human SMARCE1, Q969G3 (Q969G3 whole entry): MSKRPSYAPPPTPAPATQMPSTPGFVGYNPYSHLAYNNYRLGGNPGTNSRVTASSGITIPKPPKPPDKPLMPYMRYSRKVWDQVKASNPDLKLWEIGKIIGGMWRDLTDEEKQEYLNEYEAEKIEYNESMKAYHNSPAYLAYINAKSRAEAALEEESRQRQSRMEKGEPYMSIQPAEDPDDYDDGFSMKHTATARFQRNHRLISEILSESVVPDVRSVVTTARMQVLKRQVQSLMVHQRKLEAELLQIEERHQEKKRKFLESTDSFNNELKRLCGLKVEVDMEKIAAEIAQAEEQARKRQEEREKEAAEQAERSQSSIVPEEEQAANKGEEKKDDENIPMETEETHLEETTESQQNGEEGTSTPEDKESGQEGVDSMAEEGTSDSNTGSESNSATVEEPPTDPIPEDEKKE
row,effect of a mutation on the interaction,Variant
1,with no effect,S688L

# Variants of: B4
# Settings: with bmf_human BMF
row,effect of a mutation on the interaction,Variant
1,with no effect,S688L

# Variants of: B4
# Settings: with fa13c_human FAM13C
row,effect of a mutation on the interaction,Variant
1,with no effect,S688L

# Variants of: B4
# Settings: with prp31_human PRPF31, Q8WWY3
# Sequence of prp31_human PRPF31, Q8WWY3 (Q8WWY3 whole entry): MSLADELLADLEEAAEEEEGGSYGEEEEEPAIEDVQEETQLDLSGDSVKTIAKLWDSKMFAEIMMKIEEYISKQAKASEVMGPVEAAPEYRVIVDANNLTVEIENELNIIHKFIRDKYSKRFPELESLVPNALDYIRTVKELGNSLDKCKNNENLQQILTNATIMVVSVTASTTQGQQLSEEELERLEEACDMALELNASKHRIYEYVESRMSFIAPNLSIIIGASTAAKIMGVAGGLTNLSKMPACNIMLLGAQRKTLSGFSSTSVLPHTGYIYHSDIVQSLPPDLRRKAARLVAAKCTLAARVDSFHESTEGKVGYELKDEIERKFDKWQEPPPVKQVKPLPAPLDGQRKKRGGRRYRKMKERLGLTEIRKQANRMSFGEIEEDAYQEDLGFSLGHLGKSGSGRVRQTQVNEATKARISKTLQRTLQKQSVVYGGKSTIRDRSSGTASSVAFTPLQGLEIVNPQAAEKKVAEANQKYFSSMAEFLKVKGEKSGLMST
row,effect of a mutation on the interaction,Variant
1,with no effect,S688L

# Variants of: B4
# Settings: with snw1_human SNW1, Q13573
row,effect of a mutation on the interaction,Variant
1,with no effect,S688L

# Variants of: B4
# Settings: with sfr1_human SFR1, Q86XK3
# Sequence of sfr1_human SFR1, Q86XK3 (Q86XK3 whole entry): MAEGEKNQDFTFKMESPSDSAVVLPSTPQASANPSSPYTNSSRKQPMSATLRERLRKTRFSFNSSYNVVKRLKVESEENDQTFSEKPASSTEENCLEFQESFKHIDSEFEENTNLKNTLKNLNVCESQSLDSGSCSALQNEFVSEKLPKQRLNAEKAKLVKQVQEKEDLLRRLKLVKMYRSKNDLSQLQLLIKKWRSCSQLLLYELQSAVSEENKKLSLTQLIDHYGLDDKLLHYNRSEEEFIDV
row,effect of a mutation on the interaction,Variant
1,with no effect,S688L

# Variants of: B4
# Settings: with zfy26_human ZFYVE26, Q68DK2
row,effect of a mutation on the interaction,Variant
1,with no effect,S688L

# Variants of: B4
# Settings: with abi2_human ABI2, Q9NYB9
# Sequence of abi2_human ABI2, Q9NYB9 (Q9NYB9 whole entry): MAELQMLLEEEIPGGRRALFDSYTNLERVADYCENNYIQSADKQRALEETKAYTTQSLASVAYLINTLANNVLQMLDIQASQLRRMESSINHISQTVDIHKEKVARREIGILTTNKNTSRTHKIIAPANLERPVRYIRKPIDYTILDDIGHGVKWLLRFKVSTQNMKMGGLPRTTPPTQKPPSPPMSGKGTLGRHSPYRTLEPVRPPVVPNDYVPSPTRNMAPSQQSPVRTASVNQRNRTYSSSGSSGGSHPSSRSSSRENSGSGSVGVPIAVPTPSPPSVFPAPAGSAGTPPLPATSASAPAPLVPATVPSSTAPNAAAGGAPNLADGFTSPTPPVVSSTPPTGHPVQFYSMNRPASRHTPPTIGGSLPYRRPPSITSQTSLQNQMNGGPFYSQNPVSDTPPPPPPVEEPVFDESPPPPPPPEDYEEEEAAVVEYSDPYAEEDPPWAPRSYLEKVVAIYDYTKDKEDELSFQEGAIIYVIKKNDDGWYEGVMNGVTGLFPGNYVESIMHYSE
row,effect of a mutation on the interaction,Variant
1,with no effect,S688L

# Variants of: B4
# Settings: with cc121_human CCDC121, Q6ZUS5
# Sequence of cc121_human CCDC121, Q6ZUS5 (Q6ZUS5 whole entry): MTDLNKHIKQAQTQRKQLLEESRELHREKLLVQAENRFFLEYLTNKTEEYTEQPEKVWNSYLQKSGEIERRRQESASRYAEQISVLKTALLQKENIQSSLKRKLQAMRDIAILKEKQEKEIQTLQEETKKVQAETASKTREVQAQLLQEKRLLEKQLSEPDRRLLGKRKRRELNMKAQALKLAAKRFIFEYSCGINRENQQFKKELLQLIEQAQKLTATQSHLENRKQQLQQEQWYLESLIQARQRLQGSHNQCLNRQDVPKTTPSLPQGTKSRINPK
row,effect of a mutation on the interaction,Variant
1,with no effect,S688L

# Variants of: B4
# Settings: with KRT6A
row,effect of a mutation on the interaction,Variant
1,with no effect,S688L
